Numbering of substitutions follows the chain as printed. Blank lines part the entries; values can stand above or below the binder they belong to.
Assays:
Test in all cases: co-immunoprecipitation of ALFA-TXNIP, label-free quantitative interactome (mass spectrometry)
[1] = target: ITCH, endogenous in HEK293T, Q96J02; details: chain shown with the change, immunoprecipitated from HEK293T cells, n = 3, read off a plot; for response (normalized abundance): abundances normalized to unspecific background binding to empty beads, scatter plot
[2] = target: T1, HECW1, endogenous in HEK293T, Q76N89; details: chain shown with the change, immunoprecipitated from HEK293T cells, n = 3, read off a plot
T1 chain: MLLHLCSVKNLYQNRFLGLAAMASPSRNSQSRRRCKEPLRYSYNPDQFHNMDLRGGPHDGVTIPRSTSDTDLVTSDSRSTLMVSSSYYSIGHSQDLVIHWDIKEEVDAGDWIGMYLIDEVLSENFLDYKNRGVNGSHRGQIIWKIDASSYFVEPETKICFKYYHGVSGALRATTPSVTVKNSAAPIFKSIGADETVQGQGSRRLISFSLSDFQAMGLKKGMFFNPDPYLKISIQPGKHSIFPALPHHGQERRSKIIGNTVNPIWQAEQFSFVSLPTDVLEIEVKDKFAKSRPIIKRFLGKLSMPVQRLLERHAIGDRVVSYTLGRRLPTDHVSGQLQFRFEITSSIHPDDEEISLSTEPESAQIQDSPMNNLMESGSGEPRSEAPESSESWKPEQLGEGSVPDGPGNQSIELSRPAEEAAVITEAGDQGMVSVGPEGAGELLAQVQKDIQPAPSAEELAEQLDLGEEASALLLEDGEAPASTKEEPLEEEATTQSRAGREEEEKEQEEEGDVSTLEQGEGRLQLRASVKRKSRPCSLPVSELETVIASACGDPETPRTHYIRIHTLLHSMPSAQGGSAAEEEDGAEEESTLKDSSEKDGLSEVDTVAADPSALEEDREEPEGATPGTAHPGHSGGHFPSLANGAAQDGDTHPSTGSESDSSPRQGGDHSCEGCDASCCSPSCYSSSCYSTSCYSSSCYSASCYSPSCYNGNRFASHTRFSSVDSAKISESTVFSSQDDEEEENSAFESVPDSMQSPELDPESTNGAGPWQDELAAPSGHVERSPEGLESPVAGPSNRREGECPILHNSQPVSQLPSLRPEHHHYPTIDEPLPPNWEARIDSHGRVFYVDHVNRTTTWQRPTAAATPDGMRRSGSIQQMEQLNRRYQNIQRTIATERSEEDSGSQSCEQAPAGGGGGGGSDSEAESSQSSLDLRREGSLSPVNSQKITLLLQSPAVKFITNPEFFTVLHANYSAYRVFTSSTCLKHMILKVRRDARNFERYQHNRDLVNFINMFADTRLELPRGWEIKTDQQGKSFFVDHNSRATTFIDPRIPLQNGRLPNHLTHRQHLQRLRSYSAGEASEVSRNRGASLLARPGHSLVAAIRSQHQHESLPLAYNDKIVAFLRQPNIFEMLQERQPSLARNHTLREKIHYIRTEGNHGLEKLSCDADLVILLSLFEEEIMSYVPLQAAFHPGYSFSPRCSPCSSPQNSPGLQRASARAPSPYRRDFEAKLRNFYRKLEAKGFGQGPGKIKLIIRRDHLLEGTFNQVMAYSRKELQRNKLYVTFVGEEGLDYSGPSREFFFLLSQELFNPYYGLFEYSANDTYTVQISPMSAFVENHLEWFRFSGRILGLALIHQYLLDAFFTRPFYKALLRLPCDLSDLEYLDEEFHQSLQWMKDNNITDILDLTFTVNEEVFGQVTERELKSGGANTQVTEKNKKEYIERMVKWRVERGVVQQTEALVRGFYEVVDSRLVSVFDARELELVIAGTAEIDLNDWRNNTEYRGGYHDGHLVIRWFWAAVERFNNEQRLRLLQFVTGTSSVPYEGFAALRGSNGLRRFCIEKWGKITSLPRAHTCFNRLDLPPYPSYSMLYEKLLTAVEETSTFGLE

[3] = target: WWP1, endogenous in HEK293T, Q9H0M0; details: chain shown with the change, immunoprecipitated from HEK293T cells, n = 3, read off a plot; for response (normalized abundance): abundances normalized to unspecific background binding to empty beads, scatter plot
[4] = target: WWP2, endogenous in HEK293T, O00308; details: chain shown with the change, immunoprecipitated from HEK293T cells, n = 3, read off a plot; for response (normalized abundance): abundances normalized to unspecific background binding to empty beads, scatter plot
Sequence of WWP2, endogenous in HEK293T, O00308 (O00308 whole entry): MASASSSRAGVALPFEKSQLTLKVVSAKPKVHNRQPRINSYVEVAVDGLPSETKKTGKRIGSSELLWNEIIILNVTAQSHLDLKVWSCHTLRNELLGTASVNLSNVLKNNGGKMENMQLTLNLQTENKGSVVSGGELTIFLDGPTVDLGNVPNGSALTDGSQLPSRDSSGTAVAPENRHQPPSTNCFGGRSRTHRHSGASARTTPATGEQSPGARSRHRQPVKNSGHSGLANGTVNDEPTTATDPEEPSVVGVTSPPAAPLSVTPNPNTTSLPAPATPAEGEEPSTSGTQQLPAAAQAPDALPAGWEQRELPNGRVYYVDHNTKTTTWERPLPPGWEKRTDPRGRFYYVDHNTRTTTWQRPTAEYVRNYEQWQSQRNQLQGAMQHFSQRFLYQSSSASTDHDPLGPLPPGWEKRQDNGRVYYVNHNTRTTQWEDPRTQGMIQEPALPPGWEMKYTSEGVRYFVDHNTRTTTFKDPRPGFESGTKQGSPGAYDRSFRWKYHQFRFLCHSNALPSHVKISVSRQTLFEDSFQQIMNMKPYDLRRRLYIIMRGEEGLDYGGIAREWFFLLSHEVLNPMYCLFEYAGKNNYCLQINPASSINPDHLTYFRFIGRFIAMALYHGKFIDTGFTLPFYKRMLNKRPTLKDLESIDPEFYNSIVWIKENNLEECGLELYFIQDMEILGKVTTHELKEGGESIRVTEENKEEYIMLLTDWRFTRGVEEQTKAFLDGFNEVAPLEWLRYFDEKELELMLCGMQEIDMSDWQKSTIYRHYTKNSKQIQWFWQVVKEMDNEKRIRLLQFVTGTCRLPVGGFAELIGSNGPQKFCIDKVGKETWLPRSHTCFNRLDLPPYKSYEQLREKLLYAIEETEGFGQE

Sequence of ITCH, endogenous in HEK293T, Q96J02 (Q96J02 whole entry): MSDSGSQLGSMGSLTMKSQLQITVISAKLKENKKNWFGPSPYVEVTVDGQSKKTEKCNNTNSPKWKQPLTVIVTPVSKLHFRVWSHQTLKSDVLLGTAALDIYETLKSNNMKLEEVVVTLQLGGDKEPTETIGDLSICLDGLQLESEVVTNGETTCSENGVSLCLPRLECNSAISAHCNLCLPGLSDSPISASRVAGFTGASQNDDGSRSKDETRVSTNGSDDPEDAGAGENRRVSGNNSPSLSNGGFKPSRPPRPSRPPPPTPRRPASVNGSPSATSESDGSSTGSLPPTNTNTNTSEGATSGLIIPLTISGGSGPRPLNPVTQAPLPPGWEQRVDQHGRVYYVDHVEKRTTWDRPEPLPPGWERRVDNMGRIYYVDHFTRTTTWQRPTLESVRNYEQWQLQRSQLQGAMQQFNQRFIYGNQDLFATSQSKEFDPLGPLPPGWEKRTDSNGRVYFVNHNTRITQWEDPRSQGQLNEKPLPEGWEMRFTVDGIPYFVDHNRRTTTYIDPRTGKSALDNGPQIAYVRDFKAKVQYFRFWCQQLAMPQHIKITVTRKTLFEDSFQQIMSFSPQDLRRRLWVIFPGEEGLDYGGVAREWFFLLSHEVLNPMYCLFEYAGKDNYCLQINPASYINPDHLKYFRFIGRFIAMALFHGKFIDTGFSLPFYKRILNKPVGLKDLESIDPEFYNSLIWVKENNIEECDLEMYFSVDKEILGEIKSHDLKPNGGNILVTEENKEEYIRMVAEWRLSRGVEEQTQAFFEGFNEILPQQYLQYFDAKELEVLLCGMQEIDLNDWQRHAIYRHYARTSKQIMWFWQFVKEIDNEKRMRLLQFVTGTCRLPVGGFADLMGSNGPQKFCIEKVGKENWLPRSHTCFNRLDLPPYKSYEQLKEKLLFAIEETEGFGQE

- response (normalized abundance) ([1]; parent: est. 3.0e8): 1.5e+08
- other: log2 PPxY331/WT [1]: -1.1 log2
- other: log2 PPxY331/WT [2]: -6.5 log2
- response (normalized abundance) ([3]; parent: est. 3.2e8): 8.5e+07
- other: log2 PPxY331/WT [3]: -1.5 log2
- response (normalized abundance) ([4]; parent: est. 1.4e9): 4.5e+08
- other: log2 PPxY331/WT [4]: -1.8 log2
B1: ALFA-tagged TXNIP (thioredoxin interacting protein), expressed in HEK293T, Q9H3M7 PPCY331AACA (protein)
chain: MVMFKKIKSFEVVFNDPEKVYGSGEKVAGRVIVEVCEVTRVKAVRILACGVAKVLWMQGSQQCKQTSEYLRYEDTLLLEDQPTGENEMVIMRPGNKYEYKFGFELPQGPLGTSFKGKYGCVDYWVKAFLDRPSQPTQETKKNFEVVDLVDVNTPDLMAPVSAKKEKKVSCMFIPDGRVSVSARIDRKGFCEGDEISIHADFENTCSRIVVPKAAIVARHTYLANGQTKVLTQKLSSVRGNHIISGTCASWRGKSLRVQKIRPSILGCNILRVEYSLLIYVSVPGSKKVILDLPLVIGSRSGLSSRTSSMASRTSSEMSWVDLNIPDTPEAAACAMDVIPEDHRLESPTTPLLDDMDGSQDSPIFMYAPEFKFMPPPTYTEVDPCILNNNVQ

- response (normalized abundance) ([1]; parent: est. 3.5e8): 150000
- other: log2 PPxY/WT ([1]; volcano plot): -4.5 log2
- other: log2 PPxY/WT ([2]; volcano plot): -6.6 log2
- response (normalized abundance) ([3]; parent: est. 3.5e8): 1.6e+06
- other: log2 PPxY/WT ([3]; volcano plot): -3 log2
- response (normalized abundance) ([4]; parent: est. 1.3e9): 800000
B2: ALFA-tagged TXNIP (thioredoxin interacting protein), expressed in HEK293T, Q9H3M7 PPCY331AACA; PPTY375AATA (protein)
chain: B1 chain with P375A, P376A, Y378A

From paper PMC12669767
